Test results reported in patent US7067277 (H LUNDBECK A S, dated 2006).
Changes are numbered by the printed parent chain.

B1: C. elegans Gαq/z5 (other)
chain: MACCLSEEAREQKRINQEIEKQLQRDKRNARRELKLLLLGTGESGKSTFIKQMRIIHGQGYSEEDKRAHIRLVYQNVFMAIQSMIRAMDTLDIKFGNESEELQEKAAVVREVDFESVTSFEEPYVSYIKELWEDSGIQECYDRRREYQLTDSAKYYLSDLRRLAVPDYLPTEQDILRVRVPTTGIIEYPFDLEQIIFRMVDVGGQRSERRKWIHCFENVTSIMFLVALSEYDQVLVECDNENRMEESKALFRTIITYPWFTNSSVILFLNKKDLLEEKILYSHLADYFPEYDGPPRDPIAAREFILKMFVDLNPDADKIIYSHFTCATDTENIRFVFAAVKDTILQHNLKYIGLC
B2: C. elegans Gαq/z9 (other)
chain: B1 chain with H347N
B3: Human Gαq/z5 (Ala→Ser substitution at position 171) (other)
chain: MTLESIMACCLSEEAKEARRINDEIERQLRRDKRDARRELKLLLLGTGESGKSTFIKQMRIIHGSGYSDEDKRGFTKLVYQNIFTAMQAMIRAMDTLKIPYKYEHNKAHAQLVREVDVEKVSAFENPYVDAIKSLWNDPGIQECYDRRREYQLSDSTKYYLNDLDRVADPSYLPTQQDVLRVRVPTTGIIEYPFDLQSVIFRMVDVGGQRSERRKWIHCFENVTSIMFLVALSEYDQVLVESDNENRMEESKALFRTIITYPWFQNSSVILFLNKKDLLEEKIMYSHLVDYFPEYDGPQRDAQAAREFILKMFVDLNPDSDKIIYSHFTCATDTENIRFVFAAVKDTILQLNLKYIGLC

How the values were obtained:
Assay in all cases: cell-based or functional assay
[1] = target: T1, human 5HT1F receptor (human, UniProt P30939 1-366)
T1 sequence (looked up): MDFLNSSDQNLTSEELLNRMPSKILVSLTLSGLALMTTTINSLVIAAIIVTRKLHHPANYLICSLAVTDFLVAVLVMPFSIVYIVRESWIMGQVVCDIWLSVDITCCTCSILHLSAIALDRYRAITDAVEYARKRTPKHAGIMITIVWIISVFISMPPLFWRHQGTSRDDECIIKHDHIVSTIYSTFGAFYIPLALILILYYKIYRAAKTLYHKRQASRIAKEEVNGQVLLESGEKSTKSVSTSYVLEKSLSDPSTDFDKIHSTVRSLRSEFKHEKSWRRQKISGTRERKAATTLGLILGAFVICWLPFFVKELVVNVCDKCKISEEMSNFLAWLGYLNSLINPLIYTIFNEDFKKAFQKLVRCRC

[2] = target: human 5HT4 receptor (human, UniProt Q13639 1-388)
human 5HT4 receptor, sequence (Q13639 whole entry): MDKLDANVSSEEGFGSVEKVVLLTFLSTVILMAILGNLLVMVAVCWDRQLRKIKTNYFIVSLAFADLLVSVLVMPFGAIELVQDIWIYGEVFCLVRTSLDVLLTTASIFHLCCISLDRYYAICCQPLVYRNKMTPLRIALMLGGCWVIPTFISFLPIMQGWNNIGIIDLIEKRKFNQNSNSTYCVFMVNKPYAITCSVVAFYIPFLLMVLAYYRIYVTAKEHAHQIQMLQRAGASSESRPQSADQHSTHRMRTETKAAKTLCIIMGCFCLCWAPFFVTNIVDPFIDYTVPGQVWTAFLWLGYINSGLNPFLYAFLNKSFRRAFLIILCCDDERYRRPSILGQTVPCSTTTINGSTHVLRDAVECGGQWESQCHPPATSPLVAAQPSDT

[3] = target: T2, human 5HT1A receptor (human, UniProt P08908 1-422)
T2 sequence (looked up): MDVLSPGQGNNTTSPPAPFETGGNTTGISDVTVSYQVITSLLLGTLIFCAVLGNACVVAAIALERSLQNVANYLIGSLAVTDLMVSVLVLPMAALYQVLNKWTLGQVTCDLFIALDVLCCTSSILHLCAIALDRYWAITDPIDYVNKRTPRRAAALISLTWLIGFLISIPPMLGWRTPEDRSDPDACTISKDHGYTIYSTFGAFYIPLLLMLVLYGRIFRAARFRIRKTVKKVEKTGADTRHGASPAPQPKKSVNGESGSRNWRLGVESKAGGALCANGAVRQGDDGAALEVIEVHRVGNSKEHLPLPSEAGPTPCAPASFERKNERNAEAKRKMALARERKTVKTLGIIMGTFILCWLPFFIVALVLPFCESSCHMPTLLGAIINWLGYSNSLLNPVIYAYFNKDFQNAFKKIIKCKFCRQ

[4] = target: T3, rat GALR3 receptor (rat, UniProt O88626 1-370)
T3 sequence (looked up): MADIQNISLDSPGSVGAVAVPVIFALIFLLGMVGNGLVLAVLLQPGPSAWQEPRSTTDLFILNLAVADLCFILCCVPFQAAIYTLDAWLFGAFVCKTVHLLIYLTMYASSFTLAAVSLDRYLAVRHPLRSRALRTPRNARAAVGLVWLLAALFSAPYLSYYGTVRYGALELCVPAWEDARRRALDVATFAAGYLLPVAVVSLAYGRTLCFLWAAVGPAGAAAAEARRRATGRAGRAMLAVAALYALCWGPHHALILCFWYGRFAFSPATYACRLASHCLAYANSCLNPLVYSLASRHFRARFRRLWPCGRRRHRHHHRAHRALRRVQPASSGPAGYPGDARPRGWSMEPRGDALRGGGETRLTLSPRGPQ

[5] = target: rat Y4 receptor (rat, UniProt Q63447 1-375)
rat Y4 receptor, sequence (Q63447 whole entry): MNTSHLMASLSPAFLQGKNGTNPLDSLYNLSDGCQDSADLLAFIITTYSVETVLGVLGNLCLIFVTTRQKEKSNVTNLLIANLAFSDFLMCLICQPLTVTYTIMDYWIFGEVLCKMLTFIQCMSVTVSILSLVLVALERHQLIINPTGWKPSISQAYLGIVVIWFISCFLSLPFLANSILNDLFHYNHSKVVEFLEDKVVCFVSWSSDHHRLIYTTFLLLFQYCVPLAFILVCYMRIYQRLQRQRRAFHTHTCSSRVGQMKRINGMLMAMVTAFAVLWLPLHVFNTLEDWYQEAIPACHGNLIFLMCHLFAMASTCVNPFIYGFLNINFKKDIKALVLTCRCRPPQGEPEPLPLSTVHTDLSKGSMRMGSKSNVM

[6] = target: T4, human α2C adrenergic receptor (human, UniProt P18825 1-462)
T4 sequence (looked up): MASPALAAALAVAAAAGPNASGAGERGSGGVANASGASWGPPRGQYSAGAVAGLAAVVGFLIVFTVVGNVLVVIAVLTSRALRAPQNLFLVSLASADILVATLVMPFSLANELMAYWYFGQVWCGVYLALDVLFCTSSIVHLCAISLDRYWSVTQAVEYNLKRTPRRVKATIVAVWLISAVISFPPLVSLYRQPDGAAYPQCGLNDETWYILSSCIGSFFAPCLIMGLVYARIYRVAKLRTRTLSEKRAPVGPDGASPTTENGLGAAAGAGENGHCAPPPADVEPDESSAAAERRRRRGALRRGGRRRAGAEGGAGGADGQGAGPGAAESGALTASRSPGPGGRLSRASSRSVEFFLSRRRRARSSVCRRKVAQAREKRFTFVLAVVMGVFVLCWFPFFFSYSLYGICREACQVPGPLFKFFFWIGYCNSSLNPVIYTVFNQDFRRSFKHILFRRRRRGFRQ

[7] = target: T5, rat GALR2 receptor (rat, UniProt O08726 1-372)
T5 sequence (looked up): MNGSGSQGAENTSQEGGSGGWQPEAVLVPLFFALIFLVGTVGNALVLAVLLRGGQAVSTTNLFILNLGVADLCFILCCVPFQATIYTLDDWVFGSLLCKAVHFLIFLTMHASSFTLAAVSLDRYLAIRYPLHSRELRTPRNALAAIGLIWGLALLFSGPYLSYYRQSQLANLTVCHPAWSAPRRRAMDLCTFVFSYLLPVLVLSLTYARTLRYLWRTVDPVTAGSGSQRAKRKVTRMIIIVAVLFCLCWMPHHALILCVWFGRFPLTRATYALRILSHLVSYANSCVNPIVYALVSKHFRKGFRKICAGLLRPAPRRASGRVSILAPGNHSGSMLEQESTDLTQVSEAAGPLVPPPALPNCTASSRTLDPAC

[8] = target: human kappa opioid receptor (human, UniProt P41145 1-380)
human kappa opioid receptor, sequence (P41145 whole entry): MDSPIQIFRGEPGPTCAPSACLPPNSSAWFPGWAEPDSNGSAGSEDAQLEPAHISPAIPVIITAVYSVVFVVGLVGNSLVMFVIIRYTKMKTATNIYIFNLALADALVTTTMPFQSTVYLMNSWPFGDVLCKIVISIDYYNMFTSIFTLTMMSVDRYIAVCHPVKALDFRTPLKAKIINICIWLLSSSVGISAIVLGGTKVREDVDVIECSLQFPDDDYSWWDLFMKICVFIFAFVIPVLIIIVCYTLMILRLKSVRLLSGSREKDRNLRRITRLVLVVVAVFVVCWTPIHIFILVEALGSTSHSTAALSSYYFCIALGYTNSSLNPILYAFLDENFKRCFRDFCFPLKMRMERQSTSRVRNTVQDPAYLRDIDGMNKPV

[9] = target: human NPFF2 receptor (human, UniProt Q9Y5X5 1-522)
human NPFF2 receptor, sequence (Q9Y5X5 whole entry): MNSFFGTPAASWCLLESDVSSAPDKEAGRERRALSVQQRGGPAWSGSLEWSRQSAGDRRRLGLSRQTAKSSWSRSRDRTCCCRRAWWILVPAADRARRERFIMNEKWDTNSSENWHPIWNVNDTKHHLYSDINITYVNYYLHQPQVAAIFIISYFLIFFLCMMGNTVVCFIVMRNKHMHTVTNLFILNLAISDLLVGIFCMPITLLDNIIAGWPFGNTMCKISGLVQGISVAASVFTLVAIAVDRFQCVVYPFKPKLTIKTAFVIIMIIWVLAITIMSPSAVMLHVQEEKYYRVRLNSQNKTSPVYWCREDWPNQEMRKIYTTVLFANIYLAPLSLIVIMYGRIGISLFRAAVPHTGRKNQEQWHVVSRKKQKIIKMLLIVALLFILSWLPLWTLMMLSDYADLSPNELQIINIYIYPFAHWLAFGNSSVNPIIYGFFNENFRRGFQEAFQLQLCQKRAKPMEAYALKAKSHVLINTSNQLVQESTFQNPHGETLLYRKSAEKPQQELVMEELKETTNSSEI

[10] = target: T6, human α1A adrenergic receptor (human, UniProt P35348 1-466)
T6 sequence (looked up): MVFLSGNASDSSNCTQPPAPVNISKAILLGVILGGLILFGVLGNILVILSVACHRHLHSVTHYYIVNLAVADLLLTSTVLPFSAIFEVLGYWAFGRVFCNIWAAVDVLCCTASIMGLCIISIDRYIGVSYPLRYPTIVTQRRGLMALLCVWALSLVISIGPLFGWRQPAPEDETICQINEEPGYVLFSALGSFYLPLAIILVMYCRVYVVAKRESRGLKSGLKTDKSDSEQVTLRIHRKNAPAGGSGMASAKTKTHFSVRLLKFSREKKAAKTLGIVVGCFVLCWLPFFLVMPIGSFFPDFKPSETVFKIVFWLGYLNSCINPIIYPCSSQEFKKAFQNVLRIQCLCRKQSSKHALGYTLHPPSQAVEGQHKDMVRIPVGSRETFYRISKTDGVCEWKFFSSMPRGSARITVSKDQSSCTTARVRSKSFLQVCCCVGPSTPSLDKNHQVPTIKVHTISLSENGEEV

[11] = target: rat NTR1 receptor (rat, UniProt P20789 1-424)
rat NTR1 receptor, sequence (P20789 whole entry): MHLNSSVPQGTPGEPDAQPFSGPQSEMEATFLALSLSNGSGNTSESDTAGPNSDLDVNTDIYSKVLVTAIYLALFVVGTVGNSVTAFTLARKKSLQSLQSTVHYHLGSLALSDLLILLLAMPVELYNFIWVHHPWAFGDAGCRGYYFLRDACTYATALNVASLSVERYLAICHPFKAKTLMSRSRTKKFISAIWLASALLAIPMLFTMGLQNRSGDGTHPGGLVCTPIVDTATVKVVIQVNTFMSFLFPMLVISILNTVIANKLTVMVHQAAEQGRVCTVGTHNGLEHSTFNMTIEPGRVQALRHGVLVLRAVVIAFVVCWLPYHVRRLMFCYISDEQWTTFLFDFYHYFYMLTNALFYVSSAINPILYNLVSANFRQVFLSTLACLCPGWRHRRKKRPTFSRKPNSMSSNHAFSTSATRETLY

| Binder | max Ca2+ signal, COS-7, FLIPR; agonist 5HT [1] [fluorescence units] | max Ca2+ signal, COS-7, FLIPR; agonist 5HT [2] [fluorescence units] | max Ca2+ signal, COS-7, FLIPR; agonist 5HT [3] [fluorescence units] | max Ca2+ signal, COS-7, FLIPR; agonist GAL [4] [fluorescence units] | max Ca2+ signal, COS-7, FLIPR; agonist PP [5] [fluorescence units] | max Ca2+ signal, COS-7, FLIPR; agonist NE [6] [fluorescence units] | max Ca2+ signal, COS-7, FLIPR; agonist GAL [7] [fluorescence units] | max Ca2+ signal, COS-7, FLIPR; agonist U-69593 [8] [fluorescence units] | max Ca2+ signal, COS-7, FLIPR; agonist NPFF [9] [fluorescence units] | max Ca2+ signal, COS-7, FLIPR; agonist NE [10] [fluorescence units] | max Ca2+ signal, COS-7, FLIPR; agonist NT [11] [fluorescence units] |
| --- | --- | --- | --- | --- | --- | --- | --- | --- | --- | --- | --- |
| B1 | 243 | 1010 | 2000 | 2300 | 3660 | 4140 | 4200 | 5980 | 7570 | 9820 | 14500 |
| B2 | 384 | 1700 | 3140 | 2970 | 2580 | 3870 | 4470 | 3470 | 4580 | 6600 | 6110 |
| B3 | 0 | 2160 | 478 | 2800 | 4390 | 6110 | 4860 | 7860 | 20000 | 14200 | 11200 |
